{
  "source": "patent US20190170753A1",
  "about": "(ICAHN SCHOOL OF MEDICINE AT MOUNT SINAI, published 2019)",
  "binders": {"B1": {"name": "Neo4 mouse monoclonal antibody (antibody, V domains shown)", "VH": "QIQLKESGPAVIKPSQSLSLTCIVSGFSITSSVYCWQWIRQPPGKGLEWMGRICYDGSVDYSPSITSRGTISRDTSLNKVFFQLSSVTNEDTAMYYCSRENHIDYYDTTYPSFDVWGAGTTVTVSS", "VL": "DIVLTQSPASLIVSLGQRATISCRASKSVNEYGYTYMHWYQQKPGLPPKLLIYLASNLDSGVPARFSGSGSGTDFTLNIHPVEEEDAATYYCQHSRELPYTFGGGTKLEIKR", "notes": "Mouse hybridoma antibody, isotype IgG1, purified with Protein G; also called HCV Neo4"}},
  "key": {"HCV core peptide 49": {"molecular_target": "T1, HCV core peptide 49 (hepatitis C virus, HELM PEPTIDE1{[O=C1N[C@H]2[C@H](CS[C@H]2CCCCC(=O)[*:2])N1].S.G.S.G.L.L.S.P.R.G.S.R.P.S.W.G.P.T.D.[am]}$$$$V2.0; SMILES …)", "T1 peptide": "SGSGLLSPRGSRPSWGPTD", "assay": "peptide EIA"}, "HCV core peptide 48": {"molecular_target": "T2, HCV core peptide 48 (hepatitis C virus, HELM PEPTIDE1{[O=C1N[C@H]2[C@H](CS[C@H]2CCCCC(=O)[*:2])N1].S.G.S.G.G.W.L.L.S.P.R.G.S.R.P.S.W.G.P.[am]}$$$$V2.0; SMILES …)", "T2 construct": "also called aa 95-109", "T2 peptide": "SGSGGWLLSPRGSRPSWGP", "assay": "peptide EIA"}, "[1]": {"molecular_target": "T3, C113T109N biotin labeled HCV core peptide (hepatitis C virus, also: biotin labeled, position not given here)", "T3 construct": "also called C113T110N", "T3 peptide": "RGSRPSWGPND", "assay": "capture EIA; Ab 2000 ng/mL; bt-peptide 500 ng/mL"}, "[2]": {"molecular_target": "T4, WT1STHV biotin labeled HCV core peptide (hepatitis C virus, biotin labeled (position not given))", "T4 peptide": "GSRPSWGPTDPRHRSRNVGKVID", "assay": "capture EIA; Ab 2000 ng/mL; bt-peptide 500 ng/mL"}, "[3]": {"molecular_target": "T5, Mut1T110N biotin labeled HCV core peptide (hepatitis C virus, biotin labeled (position not given))", "T5 peptide": "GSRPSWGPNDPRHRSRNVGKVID", "assay": "capture EIA; Ab 2000 ng/mL; bt-peptide 500 ng/mL"}, "[4]": {"molecular_target": "T6, C113WT biotin labeled HCV core peptide (hepatitis C virus, also: biotin labeled, position not given here)", "T6 peptide": "RGSRPSWGPTD", "assay": "capture EIA; Ab 2000 ng/mL; bt-peptide 500 ng/mL"}, "[5]": {"molecular_target": "T7, Mut6T110S biotin labeled HCV core peptide (hepatitis C virus, biotin labeled (position not given))", "assay": "capture EIA; Ab 2000 ng/mL; bt-peptide 500 ng/mL"}, "[6]": {"molecular_target": "T8, 92-133 biotin labeled HCV core peptide (hepatitis C virus, UniProt Q9WMX2 92-133, chain 1: biotin label (bt-pep). Its position and any spacer are not visible in the passages shown.)", "T8 construct": "Only the label 92-133 is printed", "T8 peptide": "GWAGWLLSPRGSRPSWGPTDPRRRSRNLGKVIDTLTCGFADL", "assay": "capture EIA; Ab 2000 ng/mL; bt-peptide 500 ng/mL", "method": "(§1) Assay wells were coated with sheep anti-mouse IgG Fc specific antibody and incubated overnight. The coating solution was then removed; the wells blocked using BSA/tween in PBS and then washed with dH2O. […] Next, biotin labeled peptides (diluted to 500 ng/mL in block) were added, the plates incubated for 10 minutes while shaking at 700 rpm and then washed. Peroxidase conjugated streptavidin (diluted to 200 ng/mL in block) was then added to all assay wells, incubated for 20 minutes while shaking at 700 rpm and then washed. Finally, color was developed using OPD and signal quenched using 1N H₂SO₄. Signal was read at 492 nm."}, "[7]": {"molecular_target": "T3, C113T109N biotin labeled HCV core …", "assay": "capture EIA; Ab 1000 ng/mL; bt-peptide 500 ng/mL", "method": "as §1"}, "[8]": {"molecular_target": "T4, WT1STHV biotin labeled HCV core peptide", "assay": "capture EIA; Ab 1000 ng/mL; bt-peptide 500 ng/mL", "method": "as §1"}, "[9]": {"molecular_target": "T5, Mut1T110N biotin labeled HCV core …", "assay": "capture EIA; Ab 1000 ng/mL; bt-peptide 500 ng/mL", "method": "as §1"}, "[10]": {"molecular_target": "T6, C113WT biotin labeled HCV core peptide", "assay": "capture EIA; Ab 1000 ng/mL; bt-peptide 500 ng/mL", "method": "as §1"}, "[11]": {"molecular_target": "T7, Mut6T110S biotin labeled HCV core …", "assay": "capture EIA; Ab 1000 ng/mL; bt-peptide 500 ng/mL", "method": "as §1"}, "[12]": {"molecular_target": "T8, 92-133 biotin labeled HCV core peptide", "assay": "capture EIA; Ab 1000 ng/mL; bt-peptide 500 ng/mL", "method": "as §1"}},
  "note": "Where no end group is shown, it is not given here.",
  "data": [
    {"binder": "B1", "values": [
      {"measurement": "binding result", "setting": "HCV core peptide 49", "value": "no binding"},
      {"measurement": "binding result", "setting": "HCV core peptide 48", "value": "no binding"},
      {"measurement": "signal at 492 nm", "setting": "[1]", "value": 0.059, "unit": "A492"},
      {"measurement": "signal at 492 nm", "setting": "[2]", "value": 1.9, "unit": "A492"},
      {"measurement": "signal at 492 nm", "setting": "[3]", "value": 0.0882, "unit": "A492"},
      {"measurement": "signal at 492 nm", "setting": "[4]", "value": 0.0766, "unit": "A492"},
      {"measurement": "signal at 492 nm", "setting": "[5]", "value": 1.17, "unit": "A492"},
      {"measurement": "signal at 492 nm", "setting": "[6]", "value": 1.31, "unit": "A492"},
      {"measurement": "signal at 492 nm", "setting": "[7]", "value": 0.0591, "unit": "A492"},
      {"measurement": "signal at 492 nm", "setting": "[8]", "value": 2, "unit": "A492"},
      {"measurement": "signal at 492 nm", "setting": "[9]", "value": 0.0678, "unit": "A492"},
      {"measurement": "signal at 492 nm", "setting": "[10]", "value": 0.222, "unit": "A492"},
      {"measurement": "signal at 492 nm", "setting": "[11]", "value": 1.17, "unit": "A492"},
      {"measurement": "signal at 492 nm", "setting": "[12]", "value": 1.41, "unit": "A492"}
    ]}
  ]
}
